Test results taken from paper PMC11054337 (2024).

Experiments:
[1] = target: T1, phosphofructokinase PTS1 peptide (Leishmania donovani); assay: fluorescence polarization
[2] = target: T2, galactokinase PTS1 peptide (Leishmania donovani); assay: fluorescence polarization
[3] = target: T3, xanthine phosphoribosyltransferase PTS1 peptide (Leishmania donovani); assay: fluorescence polarization
[4] = target: T1, phosphofructokinase PTS1 peptide; assay: fluorescence polarization competition
[5] = target: T2, galactokinase PTS1 peptide; assay: fluorescence polarization competition
[6] = target: T3, xanthine phosphoribosyltransferase PTS1 …; assay: fluorescence polarization competition

B1: PEX5 303-625 (protein)
chain: RLQKVTNSTDYPFEPNNPYMFHDFPFDEGMEMLQLGNLAEAALAFEAVCHKDSSNEKAWQILGTTQAENEKDGLAIIALNNARKLNPRNLEVHAALSVSHTNERNADAAMDSLKAWLVNHPEYEQLASVSIPPNAELDVQETFFFADPSRMREARTLYEAAIEMNPSDSQLFTNLGVLHNVAHEFDEAAECFRKAVALHPDDPKMWNKLGATLANGGHPDQALEAYNRALDINPGYVRAMYNMAVAYSNMSQYNMAARQIVKAIASQQGGTKPSGEGSIMATRNMWDLLRMTLNLMDRDDLVQLTYNEQLEPFVKEFGLEGHV
With B1 the Kd [1] was 102 nM, the Kd [2] was 382 nM and the Kd [3] was 78 nM. For the same binder, the IC50 [4] was over 60000 nM, the IC50 [5] was 10600 nM and the IC50 [6] was 3610 nM.
